Measurements taken from patent publication US20170137818A1, “APTAMER INHIBITING BIOLOGICAL ACTIVITY OF AUTOTAXIN BY BINDING WITH AUTOTAXIN, AND USE THEREOF” (RIBOMIC INC., priority 2014, published 2017).

B1: 22 (nucleic acid)
chain: ACACTCACAGGCGCTGGCCGGAACCGTGCATATGGTCGCCAGCACATCGTGCATGGCCGCTAGT
modifications: aptamer; DNA, backbone and methylation of C not given here
B2: 5 (nucleic acid)
chain: GTGGTCTAGCTGTACTCATGGACGGAACCAGAATACTTTTGGTCTCCATTGAGTACGCCACAGTCAACGAGCTA
modifications: aptamer; DNA, backbone and methylation of C not given here
B3: 20 (nucleic acid)
chain: ACACTCACAGGCGCTGGGGTACGCTCGGAACCGAGGCAATTGGTCAGCGTGCATGGCCGCTAGT
modifications: aptamer; DNA, backbone and methylation of C not given here
B4: 9 (nucleic acid)
chain: GTGGTCTAGCTGTACTCAGGCCGGAACCGGTGAAATTGGTCGCCTAATAAGCGAAATCCACAGTCAACGAGCTA
modifications: aptamer; DNA, backbone and methylation of C not given here
B5: 24 (nucleic acid)
chain: ACACTCACAGGCGCTGGCGAGTCGGAACCGAGCCGATTGGTCACTCGCGTGCATGGCCGCTAGT
modifications: aptamer; DNA, backbone and methylation of C not given here
B6: 25 (nucleic acid)
chain: ACACTCACAGGCGCTGGCGACGTCGGAACCGTGTACCATGGTCACGTCGTGCATGGCCGCTAGT
modifications: aptamer; DNA, backbone and methylation of C not given here
B7: 10 (nucleic acid)
chain: GTGGTCTAGCTGTACTCGCCGGAACCGTACTATGGTCGCGTTGTATGACGCTTGTATCCACAGTCAACGAGCTA
modifications: aptamer; DNA, backbone and methylation of C not given here
B8: 4 (nucleic acid)
chain: GTGGTCTAGCTGTACTCTCCGGAACCAGAGCAATTTGGTCGAGCGCTATCGGATGGTCCACAGTCAACGAGCTA
modifications: aptamer; DNA, backbone and methylation of C not given here
B9: 23 (nucleic acid)
chain: ACACTCACAGGCGCTGGCACGGACCGGAACCGGGACGCTCGGTCGACCGTGCATGGCCGCTAGT
modifications: aptamer; DNA, backbone and methylation of C not given here
B10: 6 (nucleic acid)
chain: GTGGTCTAGCTGTACTCGGAACCGTACTCAACGGTCAGTACCTTTGCGCCGCAGCAAGCCACAGTCAACGAGCTA
modifications: DNA, backbone and methylation of C not given here
B11: 21 (nucleic acid)
chain: ACACTCACAGGCGCTGGCCACCACTGCACCGGAACCGCGAATGTGGTCGTGCATGGCCGCTAGT
modifications: aptamer; DNA, backbone and methylation of C not given here
B12: 8 (nucleic acid)
chain: GTGGTCTAGCTGTACTCCGAAAGCCGGAACCGTGCCAATGGTCGCTACTTCAGCTCCCCACAGTCAACGAGCTA
modifications: aptamer; DNA, backbone and methylation of C not given here

How the values were obtained:
autotaxin [1] = target: T1, autotaxin (Homo sapiens, UniProt Q13822); assay: Biacore surface plasmon resonance, autotaxin immobilized on CM4 chip, nucleic acid as analyte; format: binding; settings: maximum RU relative to SEQ ID NO: 22
T1 construct: His; purchased R&D

autotaxin [2] = target: T1, autotaxin; assay: NPP2 inhibitory assay (pNP-TMP substrate); format: biochemical; settings: mean of 2-3 measurements ± standard deviation, >1.0 = no inhibitory activity up to 1.0 μM
Description: Whether an aptamer inhibits the enzyme activity of autotaxin can be evaluated, for example, by the following test. As a substrate of autotaxin, phosphodiester bond-containing synthetic substrate p-nitrophenyl thymidine 5′-monophosphate (pNP-TMP) (SIGMA) is used. A phosphodiester bond is cleaved by hydrolysis, and p-nitrophenol is liberated. The p-nitrophenol develops a yellow color, and the color is detected. For the assay, a 96-well plate (96-Well EIAsurasshuRIA Polystyrene Plates, Costar) was used, and the amount of the reaction mixture was 200 μL. Nucleic acid was prepared in solution A (see below-mentioned Example 1) (100 μL), pNP-TMP (20 μL) adjusted to 10 mM in the reaction mixture A was added, and the mixture was stirred well and heated at 37° C. for 5 min. On the other hand, 6 ng of autotaxin (Recombinant Human, manufactured by R&D) diluted with solution A was prepared (80 μL), and heated at 37° C. for 5 min. After heating, they were mixed to start an enzyme reaction. The final autotaxin concentration in the reaction solution was 0.3 nM, and the final substrate concentration was 1 mM. A plate containing the reaction mixture was heated at 37° C. for 24 hr, placed in a microplate reader SpectraMax190 (manufactured by Molecular Devices) and the absorbance was determined at wavelength 405 nm. The absorbance when nucleic acid is not added as 100% (A0), an enzyme activity rate was determined from the absorbance (A) of each test substance and according to the following formula.
Enzyme activity rate=(A/A0)×100
(§1) The concentration (IC50) of an inhibitor necessary for inhibiting the enzyme activity by 50% was determined.
Whether these nucleic acids show an autotaxin inhibitory activity was evaluated by the following method. As a substrate of autotaxin, phosphodiester bond-containing synthetic substrate p-nitrophenyl thymidine 5′-monophosphate (pNP-TMP) (SIGMA) was selected (hereinafter to be referred to as NPP2 inhibitory assay). A phosphodiester bond is cleaved by hydrolysis, and p-nitrophenol is liberated. The p-nitrophenol develops a yellow color, and the color is detected. For the assay, a 96-well plate (96-Well EIA/RIA Polystyrene Plates, Costar) was used, and the amount of the reaction mixture was 200 μL. As the reaction mixture, solution A was used. Nucleic acids were prepared in solution A (100 μL), pNP-TMP (20 μL) adjusted to 10 mM in the reaction mixture A was added, and the mixture was stirred well and heated at 37° C. for 5 min. On the other hand, 6 ng of autotaxin diluted with solution A was prepared (80 μL), and heated at 37° C. for 5 min. After heating, they were mixed to start enzyme reaction. The final autotaxin concentration in the reaction solution was 0.3 nM, and the final substrate concentration was 1 mM. A plate containing the reaction mixture was heated at 37° C. for 24 hr, placed in a microplate reader SpectraMax190 (manufactured by Molecular Devices) and the absorbance was determined at wavelength 405 nm. The absorbance when nucleic acids are not added as 100% (A0), an […] was determined from the absorbance (A) of each test substance and according to the following formula.
as §1

autotaxin [3] = target: T1, autotaxin; assay: Biacore surface plasmon resonance, nucleic acid immobilized on SA chip, autotaxin as analyte; format: binding; settings: nucleic acid immobilized about 1500 RU, autotaxin 0.02 μM as analyte; maximum RU relative to SEQ ID NO: 10
Experimental: Biacore T100 manufactured by GE Healthcare is used for the measurement of binding strength. In one measurement method, an aptamer is first immobilized on a sensorchip. The immobilization amount is set to about 1500 RU. An autotaxin solution as an analyte prepared to 0.020 μM is injected by 20 μL, and binding of the autotaxin to the aptamer is detected.
All nucleic acids shown in SEQ ID NOs: 4-10 were produced by chemical synthesis. The binding activity of these nucleic acids to autotaxin was evaluated by the surface plasmon resonance method. For the measurement, Biacore T100 manufactured by GE Healthcare was used. The SA chips with streptavidin immobilized thereon were used as the sensor chips. Binding thereto was about 1500 RU of 16 nucleotide Poly dT of which biotin was bound to the 5′-terminus. The nucleic acids used as a ligand were added with Poly A (16 nucleotides) to the 3′-terminus, and were immobilized on SA chips by T-A annealing. The nucleic acids (20 μL) were injected at a flow rate of 20 μL/min to immobilize about 1500 RU of the nucleic acids. An autotaxin for analyte was prepared at 0.02 μM, and 20 μL thereof was injected. As a running buffer, solution A (mixed solution of 145 mM sodium chloride, 5.4 mM potassium chloride, 1.8 mM calcium chloride, 0.8 mM magnesium chloride, 20 mM Tris (pH 7.6), 0.05% Tween20) was used.

[4] = Table 1, autotaxin 0.3 nM, pNP-TMP 1 mM, 37° C. 24 hr

Row | Molecule | Binding activity by Biacore (autotaxin [1]) | IC50 (autotaxin [2]; Table 3) [nM] | IC50 (autotaxin [2]; [4]) [nM] | Binding activity by Biacore (autotaxin [3])
1 | B1 | + (not less than that) | 30 ± 11 | – | –
2 | B2 | – | – | 11 ± 5 | + (not less than that)
3 | B3 | + (not less than that) | 37 ± 2 | – | –
4 | B4 | – | – | 36 ± 4 | + (not less than that)
5 | B5 | + (not less than that) | 32 ± 4.2 | – | –
6 | B6 | + (not less than that) | 31 ± 5.7 | – | –
7 | B7 | – | – | 21 ± 6 | + (not less than that)
8 | B8 | – | – | 16 ± 6 | + (not less than that)
9 | B9 | + (not less than that) | 75 | – | –
10 | B10 | – | – | 20 | + (not less than that)
11 | B11 | + (not less than that) | 28 ± 11 | – | –
12 | B12 | – | – | 10 ± 2 | + (not less than that)
